The data set is described as follows: total protein half-life in vivo (active degradation + dilution); higher = more stable protein.
[1] abbreviates: E. coli NCM3722 delta-clpP delta-lon delta-hslV, growth: N-lim chemostat, doubling time 6 h.
The mark [2] stands for this setting: E. coli NCM3722 delta-clpP, growth: N-lim chemostat, doubling time 6 h.
[3] abbreviates: E. coli NCM3722 delta-hslV, growth: N-lim chemostat, doubling time 6 h.
[4] abbreviates: E. coli NCM3722 delta-lon, growth: N-lim chemostat, doubling time 6 h.
[5] abbreviates: E. coli NCM3722 delta-smpB, growth: N-lim chemostat, doubling time 6 h.
[6] abbreviates: wild type E. coli NCM3722, growth: C-lim chemostat, doubling time 3 h.
Where [7] appears, read: wild type E. coli NCM3722, growth: C-lim chemostat, doubling time 6 h.
Setting [8] is: wild type E. coli NCM3722, growth: C-lim chemostat, doubling time 12 h.
Setting [9] is: wild type E. coli NCM3722, growth: N-lim chemostat, doubling time 6 h.
The mark [10] stands for this setting: wild type E. coli NCM3722, growth: N-lim chemostat, doubling time 12 h.
Where [11] appears, read: wild type E. coli NCM3722, growth: P-lim chemostat, doubling time 6 h.
Where [12] appears, read: wild type E. coli NCM3722, growth: P-lim chemostat, doubling time 12 h.

± gives the standard deviation of the averaged measurements.

Consider “MLSFLWDLASFIVALGVLITVHEFGHFWVARRCGVRVERFSIGFGKALWRRTDKLGTEYVIALIPLGGYVKMLDERAEPVVPELRHHAFNNKSVGQRAAIIAAGPVANFIFAIFAYWLVFIIGVPGVRPVVGEIAANSIAAEAQIAPGTELKAVDGIETPDWDAVRLQLVDKIGDESTTITVAPFGSDQRRDVKLDLRHWAFEPDKEDPVSSLGIRPRGPQIEPVLENVQPNSAASKAGLQAGDRIVKVDGQPLTQWVTFVMLVRDNPGKSLALEIERQGSPLSLTLIPESKPGNGKAIGFVGIEPKVIPLPDEYKVVRQYGPFNAIVEATDKTWQLMKLTVSMLGKLITGDVKLNNLSGPISIAKGAGMTAELGVVYYLPFLALISVNLGIINLFPLPVLDGGHLLFLAIEKIKGGPVSERVQDFCYRIGSILLVLLMGLALFNDFSRL [P0AEH1]”, for which the “total protein half-life in vivo” value reads like this: under setting [1], 5.38 ± 0.54 h; under setting [2], 4.76 ± 0.25 h; under setting [3], 4.25 ± 0.049 h; under setting [4], 5.088 ± 0.044 h; under setting [5], 4.624 ± 0.034 h; under setting [6], 2.69 ± 0.22 h. The “total protein half-life in vivo” value reads like this: under setting [7], 4.23 ± 0.79 h; under setting [8], 7.59 ± 0.17 h; under setting [9], 4.2 ± 0.15 h; under setting [10], 7.28 ± 0.63 h; under setting [11], 4.17 ± 0.6 h; under setting [12], 6.21 ± 0.8 h.
As for “MQDSILTTVVKDIDGEVTTLEKFAGNVLLIVNVASKCGLTPQYEQLENIQKAWVDRGFMVLGFPCNQFLEQEPGSDEEIKTYCTTTWGVTFPMFSKIEVNGEGRHPLYQKLIAAAPTAVAPEESGFYARMVSKGRAPLYPDDILWNFEKFLVGRDGKVIQRFSPDMTPEDPIVMESIKLALAK”, the “total protein half-life in vivo” value runs as follows: under setting [1], 5.18 ± 1.1 h; under setting [2], 4.68 ± 0.55 h; under setting [3], 4.23 ± 0.055 h; under setting [4], 4.73 ± 0.43 h; under setting [5], 4.24 ± 0.047 h; under setting [6], 2.82 ± 0.28 h. The “total protein half-life in vivo” value by setting is: under setting [7], 4.93 ± 0.1 h; under setting [8], 7.87 ± 4.7 h; under setting [9], 3.99 ± 0.07 h; under setting [10], 6.05 ± 0.29 h; under setting [11], 4.87 ± 0.1 h; under setting [12], 11.1 ± 0.68 h.
In the case of “MGQRIPVTLGNIAPLSLRPFQPGRIALVCEGGGQRGIFTAGVLDEFMRAQFNPFDLYLGTSAGAQNLSAFICNQPGYARKVIMRYTTKREFFDPLRFVRGGNLIDLDWLVEATASQMPLQMDTAARLFDSGKSFYMCACRQDDYAPNYFLPTKQNWLDVIRASSAIPGFYRSGVSLEGINYLDGGISDAIPVKEAARQGAKTLVVIRTVPSQMYYTPQWFKRMERWLGDSSLQPLVNLVQHHETSYRDIQQFIEKPPGKLRIFEIYPPKPLHSIALGSRIPALREDYKLGRLCGRYFLATVGKLLTEKAPLTRHLVPVVTPESIVIPPAPVANDTLVAEVSDAPQANDPTFNNEDLA”, the “total protein half-life in vivo” value turned out to be 5.99 ± 1.5 h under setting [1]; 1.8805 ± 0.0012 h under setting [2]; 1.31 ± 0.025 h under setting [3]; 1.89 ± 0.25 h under setting [4]; 1.185 ± 0.0061 h under setting [5]; 1.89 ± 0.15 h under setting [6]. For the same sequence, the “total protein half-life in vivo” value is, setting by setting: under setting [7], 3.889 ± 0.011 h; under setting [8], 4.59 ± 0.59 h; under setting [9], 1.45 ± 0.16 h; under setting [10], 1.77 ± 0.024 h; under setting [11], 2.12 ± 0.31 h; under setting [12], 4.69 ± 0.97 h.
For “MRGEFYQQLTNDLETARAEGLFKEERIITSAQQADITVADGSHVINFCANNYLGLANHPDLIAAAKAGMDSHGFGMASVRFICGTQDSHKELEQKLAAFLGMEDAILYSSCFDANGGLFETLLGAEDAIISDALNHASIIDGVRLCKAKRYRYANNDMQELEARLKEAREAGARHVLIATDGVFSMDGVIANLKGVCDLADKYDALVMVDDSHAVGFVGENGRGSHEYCDVMGRVDIITGTLGKALGGASGGYTAARKEVVEWLRQRSRPYLFSNSLAPAIVAASIKVLEMVEAGSELRDRLWANARQFREQMSAAGFTLAGADHAIIPVMLGDAVVAQKFARELQKEGIYVTGFFYPVVPKGQARIRTQMSAAHTPEQITRAVEAFTRIGKQLGVIA [P0AB77]”, the “total protein half-life in vivo” value by setting is: under setting [1], 5.66 ± 1.2 h; under setting [2], 4.59 ± 0.16 h; under setting [3], 4.78 ± 0.57 h; under setting [4], 4.56 ± 0.44 h; under setting [5], 4.39 ± 0.082 h; under setting [6], 3.46 ± 0.59 h. Moreover, the “total protein half-life in vivo” value came to 5.66 ± 0.2 h under setting [7]; 4.55 ± 0.25 h under setting [9]; 6.84 ± 0.5 h under setting [10]; 6.03 ± 0.29 h under setting [11]; 11.11 ± 0.03 h under setting [12].
On to “MEFLMDPSIWAGLLTLVVLEIVLGIDNLVFIAILADKLPPKQRDKARLLGLSLALIMRLGLLSLISWMVTLTKPLFTVMDFSFSGRDLIMLFGGIFLLFKATTELHERLENRDHDSGHGKGYASFWVVVTQIVILDAVFSLDAVITAVGMVNHLPVMMAAVVIAMAVMLLASKPLTRFVNQHPTVVVLCLSFLLMIGLSLVAEGFGFHIPKGYLYAAIGFSIIIEVFNQIARRNFIRHQSTLPLRARTADAILRLMGGKRQANVQHDADNPMPMPIPEGAFAEEERYMINGVLTLASRSLRGIMTPRGEISWVDANLGVDEIREQLLSSPHSLFPVCRGELDEIIGIVRAKELLVALEEGVDVAAIASASPAIIVPETLDPINLLGVLRRARGSFVIVTNEFGVVQGLVTPLDVLEAIAGEFPDADETPEIITDGDGWLVKGGTDLHALQQALDVEHLADDDDIATVAGLVISANGHIPRVGDVIDVGPLHITIIEANDYRVDLVRIVKEQPAHDEDE [P0AEC0]”, for which the “total protein half-life in vivo” value runs as follows: under setting [1], 6.99 ± 0.2 h; under setting [2], 6.691 ± 0.015 h; under setting [3], 6.46 ± 0.09 h; under setting [4], 6.27 ± 0.49 h; under setting [5], 5.4 ± 0.28 h; under setting [7], 5.88 ± 0.19 h. Further, the “total protein half-life in vivo” value is, setting by setting: under setting [8], 12.3 ± 0.92 h; under setting [9], 6.71 ± 0.84 h; under setting [10], 14.2 ± 0.73 h; under setting [11], 6.06 ± 0.7 h; under setting [12], 12.2 ± 1.3 h.
Turning to “METKDLIVIGGGINGAGIAADAAGRGLSVLMLEAQDLACATSSASSKLIHGGLRYLEHYEFRLVSEALAEREVLLKMAPHIAFPMRFRLPHRPHLRPAWMIRIGLFMYDHLGKRTSLPGSTGLRFGANSVLKPEIKRGFEYSDCWVDDARLVLANAQMVVRKGGEVLTRTRATSARRENGLWIVEAEDIDTGKKYSWQARGLVNATGPWVKQFFDDGMHLPSPYGIRLIKGSHIVVPRVHTQKQAYILQNEDKRIVFVIPWMDEFSIIGTTDVEYKGDPKAVKIEESEINYLLNVYNTHFKKQLSRDDIVWTYSGVRPLCDDESDSPQAITRDYTLDIHDENGKAPLLSVFGGKLTTYRKLAEHALEKLTPYYQGIGPAWTKESVLPGGAIEGDRDDYAARLRRRYPFLTESLARHYARTYGSNSELLLGNAGTVSDLGEDFGHEFYEAELKYLVDHEWVRRADDALWRRTKQGMWLNADQQSRVSQWLVEYTQQRLSLAS”, the “total protein half-life in vivo” value by setting is: under setting [1], 6.86 ± 0.86 h; under setting [2], 5.96 ± 0.25 h; under setting [3], 2.71 ± 0.75 h; under setting [4], 2.76 ± 0.13 h; under setting [5], 2.4 ± 0.17 h; under setting [6], 2.1 ± 0.094 h. The “total protein half-life in vivo” value under setting [7] was 3.51 ± 0.53 h; the “total protein half-life in vivo” value under setting [8] came to 4.92 ± 0.65 h; the “total protein half-life in vivo” value under setting [9] is 2.83 ± 0.088 h; the “total protein half-life in vivo” value under setting [10] was 4.179 ± 0.033 h; the “total protein half-life in vivo” value under setting [11] was 2.92 ± 0.053 h; the “total protein half-life in vivo” value under setting [12] came out at 5.02 ± 0.13 h.
Take “MKLGFIGLGIMGTPMAINLARAGHQLHVTTIGPVADELLSLGAVSVETARQVTEASDIIFIMVPDTPQVEEVLFGENGCTKASLKGKTIVDMSSISPIETKRFARQVNELGGDYLDAPVSGGEIGAREGTLSIMVGGDEAVFERVKPLFELLGKNITLVGGNGDGQTCKVANQIIVALNIEAVSEALLFASKAGADPVRVRQALMGGFASSRILEVHGERMIKRTFNPGFKIALHQKDLNLALQSAKALALNLPNTATCQELFNTCAANGGSQLDHSALVQALELMANHKLA”: the “total protein half-life in vivo” value runs as follows: under setting [1], 4.94 ± 0.21 h; under setting [2], 3.37 ± 1.2 h; under setting [4], 3.23 h; under setting [11], 2.4 ± 2 h; under setting [12], 2.16 h.
